According to paper PMC12360457 (Nature, 2025):

Biological target: the molecule itself
Assay: cryo-EM structure

B1: Hailong protein A (HalA) from Rhodobacteraceae bacterium QY30, purified as the detergent-solubilized HalA–ODA complex (natural protein)
chain: DTNAVKEPEPALPSAASRGRRTKNWWEPMFDANAPASFSVSDWNFSNNRGPRCTLFLAEKMPDATTLVVKDIDFQDCDFQGTFERKIVFKDCKFTRCDFGLSTFSRTKFSGCSFYASSFTQCTLENCEFRNCKYEKIFYSGNETQIPRTLIAEPYQFLFGACATVDSVPQGKSRFEQRARFEETRSTIARALLANLHSEGSEDTYYAAVKASTLSENRARIARALIKINSSASKGKSIISRAVSFLTGFASAISAVVGMLILLVMGSLNGWGSSISRAMLVGVVAISCVAYRYHYRFNLPPEDAMVKATEIFFLFGYTNYAKMGQEDFHLVFSNALLGLFWYAIAIPTISNRLTRARG
- binding result: binds
